Measured values published in CN113637078A (WEST CHINA HOSPITAL SICHUAN UNIV, dated 2021).

Key:
[1] = biological target: T1, 蛋白激酶p38δ with 2×Strep tag (pET28a-p38δ-2×Strep) (Homo sapiens (Human), UniProt O15264 1-365); assay: indirect ELISA, p38δ coated, nanobody at 0-6.4 μM, anti-FLAG detection, 4-parameter fit
T1 construct: Recombinant, from E. coli BL21(DE3); The tag is placed at the C-terminus only on the strength of the vector name pET28a-p38γ/p38δ-2×Strep; Linkers and other vector residues are not described; not shown: 2×Strep tag
T1 sequence: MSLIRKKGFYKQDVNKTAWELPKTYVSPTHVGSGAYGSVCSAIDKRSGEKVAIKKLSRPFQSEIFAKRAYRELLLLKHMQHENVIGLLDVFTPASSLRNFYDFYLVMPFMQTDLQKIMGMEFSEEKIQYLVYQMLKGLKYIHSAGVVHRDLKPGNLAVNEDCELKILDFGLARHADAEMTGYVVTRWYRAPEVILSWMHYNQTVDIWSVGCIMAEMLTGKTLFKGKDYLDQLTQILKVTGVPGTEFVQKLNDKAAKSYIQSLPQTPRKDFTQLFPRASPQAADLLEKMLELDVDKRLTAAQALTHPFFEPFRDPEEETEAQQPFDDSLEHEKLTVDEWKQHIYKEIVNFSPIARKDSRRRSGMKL

[2] = biological target: T2, p38γ with 2×Strep tag (pET28a-p38γ-2×Strep) (Homo sapiens (Human), UniProt P53778 1-367); assay: ELISA, antigen coated on plate, periplasmic extract of the nanobody, anti-FLAG detection, OD450
T2 construct: Recombinant, from E. coli BL21(DE3); The tag is placed at the C-terminus only on the strength of the vector name; not shown: 2×Strep tag
T2 sequence: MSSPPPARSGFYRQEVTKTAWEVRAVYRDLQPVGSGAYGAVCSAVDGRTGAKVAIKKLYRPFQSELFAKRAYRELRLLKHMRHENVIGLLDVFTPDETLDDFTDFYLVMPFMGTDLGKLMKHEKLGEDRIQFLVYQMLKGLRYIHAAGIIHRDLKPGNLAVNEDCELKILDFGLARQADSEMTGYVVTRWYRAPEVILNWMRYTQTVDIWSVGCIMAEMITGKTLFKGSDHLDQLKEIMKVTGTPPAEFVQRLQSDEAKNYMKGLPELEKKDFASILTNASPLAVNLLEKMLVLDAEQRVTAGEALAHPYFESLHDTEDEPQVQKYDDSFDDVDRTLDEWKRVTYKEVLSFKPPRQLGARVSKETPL

[3] = biological target: p38α (UniProt Q16539 1-360, limits assumed); assay: as above
[4] = biological target: p38β (UniProt Q15759 1-364, limits assumed); assay: as above
Chain of p38β (Q15759 whole entry): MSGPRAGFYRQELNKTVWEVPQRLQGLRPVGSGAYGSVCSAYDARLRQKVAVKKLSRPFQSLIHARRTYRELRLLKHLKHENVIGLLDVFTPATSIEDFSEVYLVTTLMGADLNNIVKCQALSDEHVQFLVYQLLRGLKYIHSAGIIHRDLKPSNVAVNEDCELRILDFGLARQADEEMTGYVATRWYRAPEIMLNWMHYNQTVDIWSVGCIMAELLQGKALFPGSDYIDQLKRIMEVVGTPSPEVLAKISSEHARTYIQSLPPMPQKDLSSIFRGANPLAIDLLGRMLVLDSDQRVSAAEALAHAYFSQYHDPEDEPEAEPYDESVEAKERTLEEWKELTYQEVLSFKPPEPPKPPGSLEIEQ

Chain of p38α (Q16539 whole entry): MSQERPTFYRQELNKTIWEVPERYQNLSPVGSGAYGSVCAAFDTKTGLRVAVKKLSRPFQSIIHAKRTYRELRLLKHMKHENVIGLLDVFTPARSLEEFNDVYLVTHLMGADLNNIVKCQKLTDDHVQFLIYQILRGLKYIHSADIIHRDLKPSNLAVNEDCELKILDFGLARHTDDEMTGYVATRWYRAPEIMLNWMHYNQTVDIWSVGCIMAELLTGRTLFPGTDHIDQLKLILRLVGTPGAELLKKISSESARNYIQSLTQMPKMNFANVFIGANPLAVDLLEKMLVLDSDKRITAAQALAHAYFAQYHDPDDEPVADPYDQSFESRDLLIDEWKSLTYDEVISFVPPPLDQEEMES

Kd [1]: 499 nM | binding result [2]: no binding | binding result [3]: no binding | binding result [4]: no binding
B1: 纳米抗体Nb13-6 (nanobody against protein kinase p38δ), C-terminal FLAG tag (VHH)
VHH: QVQLVESGGALVQPGGSLRLSCAASGLEPSMFSLRWYRQAPGKEREWVCGISKWFDDMSYEDSVKGRFTCSRDDARNTVYLQLNSLKPEDTAVYYCASLRPTFLPGLMRTRYWGQGTQVTVSS
notes: Expressed from pET22b in E. coli BL21(DE3); Used mostly as periplasmic extract; Other vector-derived residues are not described; also called 针对蛋白激酶p38δ的纳米抗体; not shown: FLAG tag fused at the C-terminus
